Measured values from PMC12824264 (2025).

Key:
ALK1-Fc [1] = target: T1, ALK1-Fc (UniProt P37023 22-118); test: SPR
ALK1-Fc [2] = target: T1, ALK1-Fc; test: SPR; remark: listed apart in the source

Row | Binder | koff (ALK1-Fc [1]) [s⁻¹] | Kd (ALK1-Fc [2]) [nM]
1 | BMP10 growth factor domain (GFD) dimer (ligand) NAKGNYCKRTPLYIDFKEIGWDSWIIAPPGYEAYECRGVCNYPLAEHLTPTKHAIIQALVHLKNSQKASKACCVPTKLEPISILYLDKGVVTYKFKYEGMAVSECGCR | 0.000169 | –
2 | sENG(D):BMP9 complex (complex) chain 1: ETVHCDLQPVGPERGEVTYTTSQVSKGCVAQAPNAILEVHVLFLEFPTGPSQLELTLQASKQNGTWPREVLLVLSVNSSVFLHLQALGIPLHLAYNSSLVTFQEPPGVNTTELPSFPKTQILEWAAERGPITSAAELNDPQSILLRLGQAQGSLSFCMLEASQDMGRTLEWRPRTPALVRGCHLEGVAGHKEAHILRVLPGHSAGPRTVTVKVELSCAPGDLDAVLILQGPPYVSWLIDANHNMQIWTTGEYSFKIFPEKNIRGFKLPDTPQGLLGEARMLNASIVASFVELPLASIVSLHASSCGGRLQTSPAPIQTTPPKDTCSPELLMSLIQTKCADDAMTLVLKKELVAHLKCTITGLTFWDPSCEAEDRGDKFVLRSAYSSCGMQVSASMISNEAVVNILSSSSPQRKKVHCLNMDSLSFQLGLYLSPHFLQASNTIEPGQQSFVQVRVSPSVSEFLLQLDSCHLDLGPEGGTVELIQGRAAKGNCVSLLSPSPEGDPRFSFLLHFYTVPIPKTGTLSCTVALRPKTGSQDQEVHRTVFMRLNIISPDLSGCTSKG chain 2: SAGAGSHCQKTSLRVNFEDIGWDSWIIAPKEYEAYECKGGCFFPLADDVTPTKHAIVQTLVHLKFPTKVGKACCVPTKLSPISVLYKDDMGVPTLKYHYEGMSVAECGCR | 0.000236 | 0.422
3 | sENG(M):BMP10 complex (complex) chain 1: ETVHCDLQPVGPERGEVTYTTSQVSKGCVAQAPNAILEVHVLFLEFPTGPSQLELTLQASKQNGTWPREVLLVLSVNSSVFLHLQALGIPLHLAYNSSLVTFQEPPGVNTTELPSFPKTQILEWAAERGPITSAAELNDPQSILLRLGQAQGSLSFCMLEASQDMGRTLEWRPRTPALVRGCHLEGVAGHKEAHILRVLPGHSAGPRTVTVKVELSCAPGDLDAVLILQGPPYVSWLIDANHNMQIWTTGEYSFKIFPEKNIRGFKLPDTPQGLLGEARMLNASIVASFVELPLASIVSLHASSCGGRLQTSPAPIQTTPPKDTCSPELLMSLIQTKCADDAMTLVLKKELVAHLKCTITGLTFWDPSCEAEDRGDKFVLRSAYSSCGMQVSASMISNEAVVNILSSSSPQRKKVHCLNMDSLSFQLGLYLSPHFLQASNTIEPGQQSFVQVRVSPSVSEFLLQLDSCHLDLGPEGGTVELIQGRAAKGNCVSLLSPSPEGDPRFSFLLHFYTVPIPKTGTLSCTVALRPKTGSQDQEVHRTVFMRLNIISPDLSGCTSKG chain 2: NAKGNYCKRTPLYIDFKEIGWDSWIIAPPGYEAYECRGVCNYPLAEHLTPTKHAIIQALVHLKNSQKASKACCVPTKLEPISILYLDKGVVTYKFKYEGMAVSECGCR | 0.00017 | 1.68
4 | sENG(D):BMP10 complex (complex) chain 1: ETVHCDLQPVGPERGEVTYTTSQVSKGCVAQAPNAILEVHVLFLEFPTGPSQLELTLQASKQNGTWPREVLLVLSVNSSVFLHLQALGIPLHLAYNSSLVTFQEPPGVNTTELPSFPKTQILEWAAERGPITSAAELNDPQSILLRLGQAQGSLSFCMLEASQDMGRTLEWRPRTPALVRGCHLEGVAGHKEAHILRVLPGHSAGPRTVTVKVELSCAPGDLDAVLILQGPPYVSWLIDANHNMQIWTTGEYSFKIFPEKNIRGFKLPDTPQGLLGEARMLNASIVASFVELPLASIVSLHASSCGGRLQTSPAPIQTTPPKDTCSPELLMSLIQTKCADDAMTLVLKKELVAHLKCTITGLTFWDPSCEAEDRGDKFVLRSAYSSCGMQVSASMISNEAVVNILSSSSPQRKKVHCLNMDSLSFQLGLYLSPHFLQASNTIEPGQQSFVQVRVSPSVSEFLLQLDSCHLDLGPEGGTVELIQGRAAKGNCVSLLSPSPEGDPRFSFLLHFYTVPIPKTGTLSCTVALRPKTGSQDQEVHRTVFMRLNIISPDLSGCTSKG chain 2: NAKGNYCKRTPLYIDFKEIGWDSWIIAPPGYEAYECRGVCNYPLAEHLTPTKHAIIQALVHLKNSQKASKACCVPTKLEPISILYLDKGVVTYKFKYEGMAVSECGCR | 0.000329 | 2.97
5 | BMP9 growth factor domain (GFD) dimer (ligand) SAGAGSHCQKTSLRVNFEDIGWDSWIIAPKEYEAYECKGGCFFPLADDVTPTKHAIVQTLVHLKFPTKVGKACCVPTKLSPISVLYKDDMGVPTLKYHYEGMSVAECGCR | 0.000162 | –
6 | sENG(M):BMP9 complex (complex) chain 1: ETVHCDLQPVGPERGEVTYTTSQVSKGCVAQAPNAILEVHVLFLEFPTGPSQLELTLQASKQNGTWPREVLLVLSVNSSVFLHLQALGIPLHLAYNSSLVTFQEPPGVNTTELPSFPKTQILEWAAERGPITSAAELNDPQSILLRLGQAQGSLSFCMLEASQDMGRTLEWRPRTPALVRGCHLEGVAGHKEAHILRVLPGHSAGPRTVTVKVELSCAPGDLDAVLILQGPPYVSWLIDANHNMQIWTTGEYSFKIFPEKNIRGFKLPDTPQGLLGEARMLNASIVASFVELPLASIVSLHASSCGGRLQTSPAPIQTTPPKDTCSPELLMSLIQTKCADDAMTLVLKKELVAHLKCTITGLTFWDPSCEAEDRGDKFVLRSAYSSCGMQVSASMISNEAVVNILSSSSPQRKKVHCLNMDSLSFQLGLYLSPHFLQASNTIEPGQQSFVQVRVSPSVSEFLLQLDSCHLDLGPEGGTVELIQGRAAKGNCVSLLSPSPEGDPRFSFLLHFYTVPIPKTGTLSCTVALRPKTGSQDQEVHRTVFMRLNIISPDLSGCTSKG chain 2: SAGAGSHCQKTSLRVNFEDIGWDSWIIAPKEYEAYECKGGCFFPLADDVTPTKHAIVQTLVHLKFPTKVGKACCVPTKLSPISVLYKDDMGVPTLKYHYEGMSVAECGCR | 0.000124 | 0.179
